Earlier results on one substance are cited in US5389611A, “Lactoferrin hydrolyzate for use as an antibacterial agent and as a tyrosinase inhibition agent” (priority 1990, dated 1995).

Read-outs that look alike come from different tables or passages of the source.

The conditions of data set [1]: Ford et al 1977.
Data set [2] concerns coliform bacillus (Escherichia coli), staphylococcus and other enterobacteria. The following applies: Nonnecke and Smith 1984.

As to lactoferrin, the “antibacterial activity after heating” value in data set [1] (heating at 62.5° C. for 30 minutes) was “almost completely suppressed”; in data set [1] (heating at 70° C. for 15 minutes), “complete deactivation”. For the same substance, the “concentration having antibacterial activity” value in data set [2] was 0.5 to 30 mg/mL.
